The values that follow come from PMC6108177 (Nature structural & molecular biology, 2017).

For data set [1], the target named is Human TRF1 TRFH domain (residues 65–267) (human) (UniProt P54274). The data set can be described thus: ITC.
The data set “crystal structure” deals with the molecule itself. As to the kind of experiment: crystal structure.

“Human TERB1 TBM (TRF1-binding motif, residues 642–656) (from UniProt Q8NA31-1 642-656) (peptide)”: the Kd in data set [1] came out at 5.6 µM.

B1: Human TRF1 TRFH domain (residues 65–267) (domain or fragment, UniProt P54274 65-267, looked up)
chain: GLVAEAEAVAAGWMLDFLCLSLCRAFRDGRSEDFRRTRNSAEAIIHGLSSLTACQLRTIYICQFLTRIAAGKTLDAQFENDERITPLESALMIWGSIEKEHDKLHEEIQNLIKIQAIAVCMENGNFKEAEEVFERIFGDPNSHMPFKSKLLMIISQKDTFHSFFQHFSYNHMMEKIKSYVNYVLSEKSSTFLMKAAAKVVESK
On to B1, for which the “stoichiometry N” value in the data set “crystal structure” worked out at 2.

By Kd is commonly meant the free concentration of one partner at which half of the binding sites on the other are occupied at equilibrium, for simple one-to-one binding. A high value points to lower affinity. What is called stoichiometry N is the number of molecules, sites or subunits per partner or assembly.
